Here are results for 50 molecules from patent publication WO2001072771A2.

No end group written: not given here.

The target in assay [1] is soluble IGF-1 receptor (human) (UniProt P08069). Kind of assay: phage ELISA.
The target in assay [2] is soluble human insulin receptor (IR-Fc) (human) (UniProt P06213). Kind of assay: phage ELISA.

For VATSQGFYSGLSELLQGGGNV [20E2B-3-E12-IGFR], the values for the ratio over background in assay [1] and in assay [2] were 6 and 0.8, respectively.
Regarding QAVQPGFHEEFYDWFVRQVSTGVGGG [H2CA-4-H4-IGFR], the ratio over background stood at 4.1 in assay [1] and 1 in assay [2].
On to YRGMVLGRISGGAGKAASERPARIGQKVSAVNFYDWFV [A6L-0-H3-IR], for which, in assay [1], the ratio over background worked out at 26.
Consider RGKTAAVIVGRPADPFYHKLSELLQGG [B6Hα-3-E8-IR], for which the ratio over background in assay [1] was determined as 5.3; in assay [2], 1.1.
The corresponding values for ASSASGFYELLQRLAGLGLEV [20E2B-3-C4-IGFR] are 20.4 and 3.3.
The like results for EGSGFYGYFFSLLGLQG [NNRPγ-4-A9-IR] were, in that order, 10 and 1.4.
Turning to AVRATRFDEAFYDWFVRQISDGQGNK [H2CA-4-F6-IGFR], the ratio over background in assay [1] turned out to be 7.3; in assay [2], 1.1.
The like results for SRAKVEAEMPDSGDPFYHKLSELLASG [B6Hα-1-A3-IR] were, in that order, 2.6 and 0.8.
The corresponding values for ICTGQGFYQVLCGLLRGTSAR [20E2B-2-B3-IGFR] are 5.3 and 0.7.
The corresponding values for RAGSSDFHEDFYEWFVRQVSLSLKGK [H2CA-2-B9-IGFR] are 7 and 1.7.
RGMKEEVLVGGSTDPFYHKLSELLQGS [B6Hα-3-F11-IR]: the ratio over background in assay [1] came to 18.7.
For the molecule LSSDGQFYRANLLLQGSAGR [20E2B-2-B7-IGFR], the ratio over background amounted to 6.1 in assay [1] and 0.9 in assay [2].
With QGNVLDFYGWIGRLLAKQGSD [20E2B-3-D12-IGFR], the ratio over background in assay [1] came out at 6.2; in assay [2] it was 0.9.
The like results for RFSTDGFYQYLLALVGGGPVG [20E2B-1-A11-IGFR] were, in that order, 9.5 and 1.
The like results for SGAKVIWTGDSGDPFYHKLSELLQGS [B6Hα-2-C10-IR] were, in that order, 5.8 and 1.1.
The like results for APDPSDFQEIFYDWFVRQVSRMPGGG [H2CA-1-A3-IGFR] were, in that order, 3.8 and 0.8.
Take LSCLAYSRHGIWRPSTDLGLGRSVGEGSVSTRWRGYDWFE [40F-4-D1-IGFR]: the ratio over background is 4.6 in assay [1] and 0.3 in assay [2].
With SSYGCDGFYLMLFSLGLVASQELEC [20C-3-A1-IGFR], the ratio over background in assay [1] was 20.8.
For GCWEWQKWHGASDPFYHKLSELGGCS [B6Hα-3-F10-IR], the ratio over background in assay [1] amounted to 8.8.
Still for that read-out and setting: under RGAVAGFHDQFYDWFDRQVSRVHKFG [H2CA-4-H9-IGFR] stands 5.6.
With IWATGDFYRLLSQLVMGRVGT [20E2B-2-B8-IGFR], the ratio over background in assay [1] amounted to 5.7; in assay [2] it was 0.8.
As for RCQGTGFYTCIQELIGFGDPD [20E2B-4-H9-IGFR], the ratio over background in assay [1] amounted to 5.2; in assay [2], 0.9.
Turning to VNQSGSIHENFYDWFERQVSHQRGVR [H2CA-4-F10-IGFR], the results for the ratio over background in assay [1] and in assay [2] were 5.7 and 1, respectively.
As to LSVALSFYDALGQLVAGEGRW [20E2A-3-A12-IGFR], the ratio over background in assay [1] amounted to 4.3.
As for IIGGFYSYFNSVLRLGT [NNRPγ-4-A1-IR], in assay [1], the ratio over background was 10.9.
On the same count and under the same terms, under GGTKAVAKVGTRDDPFYHKLSELLQGS [B6Hα-4-G8-IR] stands 6.1.
For the molecule PAGPCGFYCGLGLLLHGDQSP [20E2B-4-H8-IGFR], the ratio over background stood at 5.3 in assay [1] and 0.9 in assay [2].
The like results for FFYRCLSRLLGGQLGSRLGLSCIGD [20C-3-E4-IGFR] were, in that order, 7.7 and 1.3.
The like results for SSCDGAGHESFYEWFVRQVSGCRSV [H2CA-3-C8-IGFR] were, in that order, 5.6 and 1.2.
Turning to QPAPDGFYSALMKLIGRGGVS [20E2B-3-C8-IGFR], in assay [1], the ratio over background came out at 15.6.
Consider RFDPFYSYFVNLLGASA [NNRPγ-4-A7-IR], for which the ratio over background worked out at 6.3 in assay [1] and 1.3 in assay [2].
With YRGMLVLGRSSDGAGKVAFERPARIGQTVFAVNFYDWFV [A6L-0-E6-IR], the ratio over background in assay [1] was found to be 31.
Still for that read-out and setting: to NVFVSFYDAIDQLVCQRIGC [20E2A-4-G11-IGFR] belongs 3.3.
Regarding AQPCGGFYGLLEQLVGRSVCD [20E2B-4-F10-IGFR], the ratio over background in assay [1] amounted to 17.3; in assay [2] it was 2.2.
YSCGDGFYSLLSDLLGGQFRC [20E2B-4-H12-IGFR]: the ratio over background was determined as 9.7 in assay [1] and 0.8 in assay [2].
Turning to GCITAENGAGDPFYHKLSELGGCS [B6Hα-1-B3-IR], in assay [1], the ratio over background was 3.2.
As for GFREGNFYEWFQAQVT [E4D -4-H2-IR], the ratio over background in assay [1] is 33.9; in assay [2] it was 8.2.
On to VGYQGQGDENFYDWFIRQVSGRLGVQ [H2CA-4-F5-IGFR], for which the figures for the ratio over background in assay [1] and in assay [2] were 9.7 and 0.8, respectively.
Turning to RCEEKQAEVGPSSDPFYHKMSELLGCR [B6Hα-3-E9-IR], in assay [1], the ratio over background stood at 24.2.
Consider DRAFYNGLRDLVGAVYGAWD [R20 -4-20C11-IR], for which the ratio over background came to 30.8 in assay [1] and 3 in assay [2].
In the case of LQPCSGFYECIERLIGVKLSG (not fully specified (bridges); cysteine pairing not given here) [20E2Bβ-4-G7-IR], in assay [1], the ratio over background stood at 25.2.
For VGTVAGFYDAIAQLVARASRV [20E2A-3-C7-IGFR], the values for the ratio over background in assay [1] and in assay [2] were 5.4 and 1.1, respectively.
For the molecule QPDHSYFYSLLQELVGSEERL [20E2B-4-F9-IGFR], in assay [1], the ratio over background worked out at 14.7.
In the case of PVGVQGFYEGLSRLVLGRGGW [20E2B-4-F8-IGFR], the figures for the ratio over background in assay [1] and in assay [2] were 7.3 and 0.8, respectively.
GGTEVDFYRALERLVRGQLGL [20E2B-3-D8-IGFR]: the ratio over background in assay [1] was 17.7.
For the molecule RQGTGSFYLMLEQLLVGARGP [20E2B-4-G11-IGFR], the values for the ratio over background in assay [1] and in assay [2] were 4.5 and 0.6, respectively.
The corresponding values for DSVGDNFYQLLESLVGGHGVG [20E2B-3-D6-IGFR] are 17.8 and 2.6.
As to AGSVTSFYDAMEQLVATGTSA [20E2A-3-A4-IGFR], the ratio over background in assay [1] stood at 2.5.
Consider NSRDGGFYLQLERLLGFPVTG [20E2B-3-D4-IGFR], for which the ratio over background was found to be 7.9 in assay [1] and 0.8 in assay [2].
Regarding SRVAATKEKRPSDDPFYHKLSELLQGS [B6Hα-3-F7-IR], the ratio over background in assay [1] was determined as 3.1.
